The text below walks through data of paper PMC5379943 (The Journal of Cell Biology, 2017).

The test concerns the target T1, His-PLEKHM1 (1–300) (UniProt Q9Y4G2 1-300).
T1 construct: PLEKHM1, residues 1–300; also called His-tagged PLEKHM1 (1–300); source: purified
The test can be described thus: pull-down; competition: GST-Arl8b as bait incubated with His-PLEKHM1 (1–300) and increasing concentrations of MBP-SKIP (1–300); immunoblot. To be noted: both partners purified. (In general: In western blotting, separated proteins are transferred to a membrane and probed.)

B1: GST-Arl8b (natural protein, UniProt Q9NVJ2 1-186, looked up)
chain: MLALISRLLDWFRSLFWKEEMELTLVGLQYSGKTTFVNVIASGQFSEDMIPTVGFNMRKVTKGNVTIKIWDIGGQPRFRSMWERYCRGVNAIVYMIDAADREKIEASRNELHNLLDKPQLQGIPVLVLGNKRDLPNALDEKQLIEKMNLSAIQDREICCYSISCKEKDNIDITLQWLIQHSKSRRS
notes: Arl8b small GTPase; source: E. coli BL21, purified on glutathione resin
In the case of B1, the binding result is listed as “binds”.
